Test [1] concerns the target T1, human IL-4Rα (human, UniProt P24394 26-232).
T1 construct: also called Hu IL-4Rα; hIL-4Rα
T1 sequence: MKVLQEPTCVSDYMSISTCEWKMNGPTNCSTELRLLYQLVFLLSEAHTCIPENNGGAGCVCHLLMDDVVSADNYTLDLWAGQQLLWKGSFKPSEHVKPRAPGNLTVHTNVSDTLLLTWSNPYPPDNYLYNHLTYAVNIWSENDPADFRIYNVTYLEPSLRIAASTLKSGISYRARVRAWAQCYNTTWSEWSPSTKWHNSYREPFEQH
Kind of test: KinExA. For orientation: Kinetic exclusion samples the free partner from a solution-phase mixture.
Description: Binding affinity (KD) of exemplary antibodies to human IL-4Rα was determined using the Kinetic Exclusion Assay (KinExA). Briefly, antibody and recombinant human IL-4Rα were equilibrated in solution. […] Samples were incubated for a time period ranging from 3.5 hours to 340 hours, to fully reach equilibrium. Once samples reached equilibrium, azlactone beads previously coated with recombinant human IL-4Rα were used to capture any free antibody from the equilibrated solution. […] The KinExA 4000 instrument was used to capture fluorescent signal and convert to a voltage signal that is directly proportional to the amount of free antibody in all the equilibrated samples, allowing for the determination of the apparent affinity of the antibody.

Test [2] concerns the target T2, hIL-4Rα on cells (human, UniProt P24394 26-825).
T2 sequence: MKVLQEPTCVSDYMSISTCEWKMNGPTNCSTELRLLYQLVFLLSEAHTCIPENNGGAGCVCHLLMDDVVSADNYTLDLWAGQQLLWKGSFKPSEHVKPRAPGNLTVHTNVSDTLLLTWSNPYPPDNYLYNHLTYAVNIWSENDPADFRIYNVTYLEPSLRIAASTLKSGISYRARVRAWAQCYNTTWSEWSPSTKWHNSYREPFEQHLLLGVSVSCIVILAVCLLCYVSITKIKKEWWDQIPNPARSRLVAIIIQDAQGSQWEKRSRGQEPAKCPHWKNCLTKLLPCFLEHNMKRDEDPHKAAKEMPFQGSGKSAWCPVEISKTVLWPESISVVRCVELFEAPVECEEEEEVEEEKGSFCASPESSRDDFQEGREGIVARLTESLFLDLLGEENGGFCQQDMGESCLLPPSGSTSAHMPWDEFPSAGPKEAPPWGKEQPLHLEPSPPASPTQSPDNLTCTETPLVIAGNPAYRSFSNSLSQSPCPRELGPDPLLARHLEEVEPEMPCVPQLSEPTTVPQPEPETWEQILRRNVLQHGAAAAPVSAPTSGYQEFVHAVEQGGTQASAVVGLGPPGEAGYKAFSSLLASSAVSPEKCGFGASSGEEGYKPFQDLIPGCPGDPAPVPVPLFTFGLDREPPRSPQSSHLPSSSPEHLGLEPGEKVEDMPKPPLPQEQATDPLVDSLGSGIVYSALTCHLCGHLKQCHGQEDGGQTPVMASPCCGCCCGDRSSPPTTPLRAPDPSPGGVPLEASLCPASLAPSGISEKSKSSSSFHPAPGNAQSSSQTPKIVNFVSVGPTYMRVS
Kind of test: cell-based or functional assay.

In test [3] the target is T2, hIL-4Rα on cells. Description: FACS on HEK293 cells, competitor biotin-hIL-4.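 Further: HEK293 cells stably co-expressing hIL-13Rα and hIL-4Rα, stained for 1 h at 4 °C, read-out as mean fluorescence intensity by flow cytometry.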
Description: (§1) Briefly, HEK293 previously transduced to stably express both hIL-13Rα and hIL-4Rα were cultured and harvested. Cells were seeded at 200,000 cells in 100 uL per well. Cells were washed and the supernatant discarded. […] The cells were stained in this mixture at 4° C. for 1 hour. […] Cells were incubated 4° C. for 1 hour, protected from light. Cells were then washed and the MFI of cells in each well were recorded by FACS using a BD FACSCanto II. Subsequent data were analyzed using GraphPad Prism.
Test [4] has as its target T2, hIL-4Rα on cells. Kind of test: cell-based or functional assay. The source holds these as a separate data set.
The target in test [5] is T2, hIL-4Rα on cells. Kind of test: FACS on HEK293 cells, competitor biotin-hIL-13.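 Further: stably transduced cells co-expressing both receptor chains, stained cold, with cell-bound signal read as mean fluorescence intensity by flow cytometry.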
Description: as §1
For test [6], the target named is T2, hIL-4Rα on cells. Description: cell-based or functional assay. This is another data set of the same source.
In test [7] the target is T1, human IL-4Rα. Description: SPR, Carterra LSA. (Surface plasmon resonance follows binding to a sensor surface in real time, without labels.)
Test [8] addresses T3, cynomolgus monkey IL-4Rα (cynomolgus monkey, UniProt P24394 26-231 (human entry), limits assumed).
T3 construct: also called Cyno IL-4Rα; cyIL-4Rα
T3 chain: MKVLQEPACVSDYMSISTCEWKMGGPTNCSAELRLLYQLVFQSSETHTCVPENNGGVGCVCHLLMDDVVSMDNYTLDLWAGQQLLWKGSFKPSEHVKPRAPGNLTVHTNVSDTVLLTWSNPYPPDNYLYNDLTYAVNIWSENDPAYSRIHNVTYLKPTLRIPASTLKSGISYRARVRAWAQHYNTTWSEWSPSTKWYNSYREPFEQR
Description: SPR, Carterra LSA.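 Further: antibodies captured on an anti-human Fc sensor chip, antigen injected at several concentrations, association and dissociation rates fitted with a 1:1 Langmuir model.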

B1: Construct 13 (mAb422) (antibody, IgG4, V domains shown)
VH: EVQLVESGGGLEQPGGSLRLSCAGSGFTFRDFAMTWVRQAPGKGLEWVSSVSGSGGNTYYADSVKGRFTISRDNSKNTLYLQMNSLRAEDTAVYYCAKDRLSVTVRPRYYGLDVWGQGTTVTVSS
VL: DIVMTQSPLSLPVTPGEPASISCRSSQSVLYSIGYNYVDWYLQKSGQSPQLLIYLGNKRASGVPDRFSGSGSGTDFTLKISRVEAEDVGFYYCMQSLTSPYTFGQGTKLEIK
notes: VH/VL only
Turning to B1, in test [1], the “KD Relative to Dupilumab” value was found to be 0.267 and the Kd amounted to 0.299 pM. In test [2], the “Relative Inhibition of IL-4 induced pSTAT6 IC50” value was 0.415 relative to dupilumab and the “Relative Inhibition of IL-13 induced pSTAT6 IC50” value was 0.824 relative to dupilumab. In addition, the “Relative Blockade of IL-4 Binding IC50” value in test [3] was 1.02 relative to dupilumab. Moreover, in test [4], the “Relative Inhibition of IL-4 induced TARC IC50” value is 0.507 relative to dupilumab and the “Relative Inhibition of IL-13 induced TARC IC50” value is 1.01 relative to dupilumab. In test [5], the “Relative Blockade of IL-13 Binding IC50” value is 0.882 relative to dupilumab. For the same molecule, in test [6], the “Relative Inhibition of IL-4 induced TF-1 Proliferation IC50” value is 0.675 relative to dupilumab and the “Relative Inhibition of IL-13 induced TF-1 Proliferation IC50” value was 0.794 relative to dupilumab. Further, in test [7], the “KD Relative to Dupilumab” value stood at 0.65 and the dissociation constant (Kd) was found to be 0.00737 nM. In test [8], the “KD Relative to Dupilumab” value stood at 0.02 and the Kd came to 12.6 nM.

B2: Construct 32 (mAb446) (antibody, IgG4, V domains shown)
VH: EVQLVESGGGLEQPGGSLRLSCAGSGFTFRDFAMTWVRQAPGKGLEWVSSVSGDGGNTYYADSVKGRFTISRDNSKNTLYLQMNSLRAEDTAVYYCAKDRLSVTVRPRYYGLDVWGQGTTVTVSS
VL: DIVMTQSPLSLPVTPGEPASISCRSSQSLLYSNGYNYLDWYLQKSGQSPQLLIYLSSNRASGVPDRFSGSGSGTDFTLKISRVEAEDVGFYYCMQAFQAPYTFGQGTKLEIK
notes: VH/VL only
Consider B2, for which, in test [2], the “Relative Inhibition of IL-4 induced pSTAT6 IC50” value is 1.68 relative to dupilumab and the “Relative Inhibition of IL-13 induced pSTAT6 IC50” value is 4.76 relative to dupilumab. In addition, in test [3], the “Relative Blockade of IL-4 Binding IC50” value was 1.36 relative to dupilumab. Further, in test [4], the “Relative Inhibition of IL-4 induced TARC IC50” value is 4.36 relative to dupilumab and the “Relative Inhibition of IL-13 induced TARC IC50” value was 2.4 relative to dupilumab. In addition, in test [5], the “Relative Blockade of IL-13 Binding IC50” value was 1.14 relative to dupilumab. Moreover, in test [6], the “Relative Inhibition of IL-4 induced TF-1 Proliferation IC50” value was 1.74 relative to dupilumab and the “Relative Inhibition of IL-13 induced TF-1 Proliferation IC50” value was 2.01 relative to dupilumab. Besides, in test [7], the “KD Relative to Dupilumab” value worked out at 1.04 and binding was put at a Kd of 0.0118 nM. For the same molecule, in test [8], the “KD Relative to Dupilumab” value came out at 1.58 and binding was characterised by a dissociation constant (Kd) of 993 nM.

B3: Construct 30 (mAb439) (antibody, IgG4, V domains shown)
VH: EVQLVESGGGLEQPGGSLRLSCAGSGFTFRDYAMTWVRQAPGKGLEWVSSISGSGGNTYYADSVKGRFTISRDNSKNTLYLQMNSLRAEDTAVYYCAKDRLSITIRPRYYGLDVWGQGTTVTVSS
VL: DIVMTQSPLSLPVTPGEPASISCRSSQSLLYSNRNNYLDWYLQKSGQSPQLLIYSASIRASGVPDRFSGSGSGTDFTLKISRVEAEDVGFYYCMQAFQAPYTFGQGTKLEIK
notes: VH/VL only
As to B3, in test [2], the “Relative Inhibition of IL-4 induced pSTAT6 IC50” value was 1.09 relative to dupilumab and the “Relative Inhibition of IL-13 induced pSTAT6 IC50” value is 0.781 relative to dupilumab. Besides, the “Relative Blockade of IL-4 Binding IC50” value in test [3] is 0.863 relative to dupilumab. Besides, in test [4], the “Relative Inhibition of IL-4 induced TARC IC50” value was 0.68 relative to dupilumab and the “Relative Inhibition of IL-13 induced TARC IC50” value was 0.592 relative to dupilumab. For the same molecule, the “Relative Blockade of IL-13 Binding IC50” value in test [5] was 0.958 relative to dupilumab. Moreover, in test [6], the “Relative Inhibition of IL-4 induced TF-1 Proliferation IC50” value was 0.387 relative to dupilumab and the “Relative Inhibition of IL-13 induced TF-1 Proliferation IC50” value was 0.917 relative to dupilumab. Also, in test [7], the “KD Relative to Dupilumab” value came out at 0.98 and the Kd worked out at 0.011 nM. In test [8], the “KD Relative to Dupilumab” value was found to be 0.2 and binding was put at a Kd of 128 nM.

B4: Construct 15 (mAb423) (antibody, IgG4, V domains shown)
VH: EVQLVESGGGLEQPGGSLRLSCAGSGFTFRDFAMTWVRQAPGKGLEWVSSISGSGGNIYYADSVKGRFTISRDNSKNTLYLQMNSLRAEDTAVYYCAKDRLSKTIRPRYYGLDVWGQGTTVTVSS
VL: DIVMTQSPLSLPVTPGEPASISCTASQSLLYSIGYNYVDWYLQKSGQSPQLLIYLGNKRASGVPDRFSGSGSGTDFTLKISRVEAEDVGFYYCMQSLTSPYTFGQGTKLEIK
notes: VH/VL only
Turning to B4, in test [1], the “KD Relative to Dupilumab” value worked out at 0.01 and the affinity, expressed as Kd, was 0.0109 pM. In test [2], the “Relative Inhibition of IL-4 induced pSTAT6 IC50” value was 0.285 relative to dupilumab and the “Relative Inhibition of IL-13 induced pSTAT6 IC50” value was 0.468 relative to dupilumab. Further, the “Relative Blockade of IL-4 Binding IC50” value in test [3] was 0.66 relative to dupilumab. Further, in test [4], the “Relative Inhibition of IL-4 induced TARC IC50” value is 0.453 relative to dupilumab and the “Relative Inhibition of IL-13 induced TARC IC50” value is 0.35 relative to dupilumab. Further, the “Relative Blockade of IL-13 Binding IC50” value in test [5] was 0.876 relative to dupilumab. Further, in test [6], the “Relative Inhibition of IL-4 induced TF-1 Proliferation IC50” value is 0.281 relative to dupilumab and the “Relative Inhibition of IL-13 induced TF-1 Proliferation IC50” value was 0.71 relative to dupilumab. Further, in test [7], the “KD Relative to Dupilumab” value amounted to 1.21 and binding was characterised by a dissociation constant (Kd) of 0.0137 nM. Further, in test [8], the “KD Relative to Dupilumab” value is 0.04 and binding was characterised by a dissociation constant (Kd) of 24.6 nM.

B5: Construct 45 (mAb494) (antibody, IgG4, V domains shown)
VH: EVQLVESGGGLEQPGGSLRLSCAGSGFTFRDFAMTWVRQAPGKGLEWVSSISGSGDGTYYADSVKGRFTISRDNSKNTLYLQMNSLRAEDTAVYYCAKDRVSITIRPRYYGLDVWGQGTTVTVSS
VL: DIVMTQSPLSLPVTPGEPASISCTASQSLLYSIGYNYVDWYLQKSGQSPQLLIYLGNNRATGVPDRFSGSGSGTDFTLKISRVEAEDVGFYYCMQSLQTPYTFGQGTKLEIK
notes: VH/VL only
B5: in test [2], the “Relative Inhibition of IL-4 induced pSTAT6 IC50” value was 1.25 relative to dupilumab and the “Relative Inhibition of IL-13 induced pSTAT6 IC50” value is 4.61 relative to dupilumab. The “Relative Blockade of IL-4 Binding IC50” value in test [3] was 1.08 relative to dupilumab. In test [4], the “Relative Inhibition of IL-4 induced TARC IC50” value is 3.09 relative to dupilumab and the “Relative Inhibition of IL-13 induced TARC IC50” value was 14.5 relative to dupilumab. Further, the “Relative Blockade of IL-13 Binding IC50” value in test [5] is 1.01 relative to dupilumab. Besides, in test [6], the “Relative Inhibition of IL-4 induced TF-1 Proliferation IC50” value was 1.68 relative to dupilumab and the “Relative Inhibition of IL-13 induced TF-1 Proliferation IC50” value is 1.79 relative to dupilumab. Further, in test [7], the “KD Relative to Dupilumab” value worked out at 0.96 and binding was put at a Kd of 0.0109 nM. In addition, in test [8], the “KD Relative to Dupilumab” value stood at 0.31 and the Kd was determined as 192 nM.

B6: Construct 46 (mAb501) (antibody, IgG4, V domains shown)
VH: EVQLVESGGGLEQPGGSLRLSCAGSGFTFRDSAMTWVRQAPGKGLEWVSSISGSGDGTYYADSVKGRFTISRDNSKNTLYLQMNSLRAEDTAVYYCAKDRLSIYIRPRYYGLDVWGQGTTVTVSS
VL: DIVMTQSPLSLPVTPGEPASISCTSSQSLLYSIGYNYVDWYLQKSGQSPQLLIYLGNKRASGVPDRFSGSGSGTDFTLKISRVEAEDVGFYYCMQALQTPYTFGQGTKLEIK
notes: VH/VL only
Turning to B6, in test [2], the “Relative Inhibition of IL-4 induced pSTAT6 IC50” value is 1.04 relative to dupilumab and the “Relative Inhibition of IL-13 induced pSTAT6 IC50” value was 3.6 relative to dupilumab. Also, in test [3], the “Relative Blockade of IL-4 Binding IC50” value is 1.22 relative to dupilumab. In addition, in test [4], the “Relative Inhibition of IL-4 induced TARC IC50” value is 2.49 relative to dupilumab and the “Relative Inhibition of IL-13 induced TARC IC50” value was 4.66 relative to dupilumab. Also, the “Relative Blockade of IL-13 Binding IC50” value in test [5] is 1.02 relative to dupilumab. Also, in test [6], the “Relative Inhibition of IL-4 induced TF-1 Proliferation IC50” value was 1.29 relative to dupilumab and the “Relative Inhibition of IL-13 induced TF-1 Proliferation IC50” value was 1.28 relative to dupilumab. In addition, in test [7], the “KD Relative to Dupilumab” value was 0.97 and the Kd is 0.011 nM. In test [8], the “KD Relative to Dupilumab” value turned out to be 0.36 and the Kd is 228 nM.

One may read the Kd as the equilibrium constant for the complex coming apart.
